Assay results taken from the supplement of paper PMC10567573.

B1: ATL3 (parent)
chain: QELEEEIKELYENFCKHNGSKNVF
B2: CHIT1 (parent)
chain: CSWKGATKQRIQDQKVPYIFRDNQ

Variants of: B1
Test: protein stability index of a GFP-peptide fusion (GPS, HEK-293T) (PSI 1-6); higher = more stable
Settings: c terminus: a fixed tail appended
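Note: lentivirally expressed fusions sorted by FACS into six bins by GFP to DsRed ratio, PSI derived from sequencing read proportions per bin multiplied by bin number.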

Protein stability index, by site and new letter:
Q1: I 1.42 | S 3.41 | W 2.03 | M 2.46 | T 3.19 | E 3.67 | A 2.22 | N 3.39 | V 2.08 | D 3.13 | Y 2.2 | H 3.17 | K 2.31 | C 2.69 | L 1.76 | G 3.31 | P 2.83 | F 2.09 | R 2.31
I7: K 4.71 | A 4.55 | E 4.94 | M 3.8 | H 4.28 | Q 4.5 | L 3.03 | F 3.49 | P 4.5 | N 4.52 | C 4.23 | G 4.73 | D 4.81
L3: P 3.9 | W 2.21 | R 4.33 | H 4 | V 2.28 | Q 4.01 | S 4.62 | Y 2.85 | C 3.71 | A 4.15 | N 2.42 | E 4.29 | T 3.83 | F 3.54 | M 3.02 | D 4.33 | G 4.49 | K 4.55 | I 3.14
E4: N 3.96 | F 2.2 | W 2.39 | M 2.14 | V 2.26 | Y 2.31 | S 3.01 | C 2.81 | D 3.62 | A 1.97 | Q 1.56 | P 3.51 | H 2.12 | T 3.34 | G 3.2 | R 2.66 | K 2.8 | L 2.47 | I 1.79
E2: H 2.62 | C 2.65 | F 2.57 | M 2.54 | R 2.8 | S 2.97 | Y 2.47 | T 3.43 | W 1.9 | A 2.38 | Q 2.52 | K 3.3 | G 3.14 | N 3.65 | L 2.21 | P 3.68 | D 3.03 | I 2.36 | V 2.3
E5: F 2.27 | P 3.85 | C 2.33 | A 1.96 | I 1.8 | L 2.23 | Q 1.81 | Y 1.9 | V 2.15 | M 2.81 | H 2.42 | G 3.25 | R 2.02 | D 3.27 | W 1.73 | K 2.21 | S 2.17 | N 2.51 | T 2.45
E6: W 1.75 | P 3.28 | L 1.75 | V 2.08 | Q 3.18 | G 3.09 | I 1.78 | M 2.19 | T 2.86 | C 2.32 | D 3.59 | N 3.29 | F 1.93 | K 2.48 | Y 2.37 | S 2.85 | H 3 | R 2.77 | A 2.13

Variants of: B2
Test: as above
Settings: c terminus: a fixed tail appended

Protein stability index, by site and new letter:
V16: L 2.55 | G 2.73 | C 3.13 | P 3.31 | I 2.5 | W 2.04 | H 2.27 | S 2.11 | M 2.28 | N 2.82 | Q 3.07 | T 2.37 | K 3.11 | F 2.32 | R 2.31 | E 2.85 | D 2.86 | Y 1.95
Q14: L 2.04 | Y 1.92 | N 2.91 | R 2.34 | T 2.88 | H 3.06 | C 2.6 | G 2.79 | S 2.37 | F 2.47 | K 1.87 | D 2.81 | M 2.21 | I 2.35 | E 2.79 | P 2.98 | V 1.94 | A 3.46 | W 1.99
Y18: R 3.08 | F 2.12 | D 3.5 | H 2.74 | C 2.7 | N 3.4 | M 2.41 | A 2.88 | W 2.19 | V 3.46 | K 3.34 | G 4.15 | P 2.58 | I 2.23 | T 3.02
Q24: E 4.3 | H 2.06 | N 2.45 | W 1.3 | L 2.31 | K 3.16 | G 2.18 | V 2.16 | D 3.34 | P 2.48 | S 2.82 | T 2.75 | I 2.85 | M 1.92 | C 3.02 | A 2.29 | F 2.01 | Y 1.61
N23: R 2.82 | L 1.89 | V 1.67 | K 3.05 | I 2.56 | Q 2.6 | C 1.91 | E 2.54 | Y 2.11 | A 2.76 | S 2.2 | H 1.99 | D 3.53 | P 2.38 | W 1.62 | F 2.04
P17: E 2.3 | R 2.67 | Y 1.75 | A 2.64 | Q 1.98 | H 2.4 | M 1.37 | S 1.81 | D 3.36 | T 2.57 | I 1.61 | K 2.8 | G 2.45 | N 2.51 | W 2.04 | L 1.33 | F 1.54 | C 2.75
R21: P 3.15 | Q 2.64 | T 2.99 | Y 2.72 | G 2.98 | L 2.9 | V 1.96 | I 2.18 | E 3.68 | F 2.47 | N 3.09 | M 2.44 | C 2.11 | S 3.12 | A 3.06 | H 2.38 | K 2.83 | W 1.87 | D 3.49
K15: P 3.22 | Y 3.73 | M 2.28 | L 2.2 | N 2.75 | Q 2.19 | R 2.31 | C 2.99 | S 2.29 | D 3.09 | T 2.48 | I 2.44 | G 2.15 | V 1.39 | F 1.54 | H 2.26
F20: V 3.09 | G 2.87 | R 3.08 | Q 3.61 | L 3.47 | N 2.93 | K 3.17 | E 3.99 | T 3.71 | D 3.16 | P 3.13 | S 3.13 | I 2 | Y 2.74 | M 3.53 | A 3.11 | H 3.29 | C 3.11
I19: F 2.08 | A 3.19 | Y 1.95 | T 2.77 | N 3.17 | K 3.67 | R 3.28 | L 2.3 | E 3.31 | D 3.88 | W 2.06 | P 1.87 | M 3.54 | H 3.02 | V 2.88 | C 2.35
D13: V 2.42 | N 1.61 | W 1.25 | Y 1.83 | I 1.5 | P 1.83 | H 1.78 | L 1.75 | K 1.84 | T 2.56 | Q 2.31 | F 1.8 | G 2.15 | R 1.69 | S 1.73 | M 2.91
D22: N 2.42 | T 2.18 | S 2.42 | L 2.06 | F 1.35 | K 2.42 | P 2.22 | H 1.72 | W 1.6 | M 2.43 | I 1.57 | V 1.83 | C 1.66 | A 2.57 | E 2.44 | G 3.03 | Q 2.33 | R 2.66
